We go through eight molecules from patent publication US20230406921A1.

The assay deals with CD47 on the surface of human red blood cells (human) (UniProt Q08722). The assay is described as follows: FACS, hRBC, 500 nM. For orientation: In flow cytometry, cells or beads pass a laser one at a time.

B1: h140Hm13/h140Lm11 (antibody, V domains shown)
VH: EVQLVQSGAEVKKPGASVKVSCKASGYKFTNYVMSWVRQAPGQRLEWMGYINPYNDAIKYNEKFTGRVTITRDTSASTAYMELSSLRSEDTAVYYCAREGDFYANYGRLGFAYWGQGTLVTVSS
VL: DIQMTQSPSSLSASVGDRVTITCRASQDITNYLNWYQQKPGKAPKLLIYYTSRLSSGVPSRFSGSGSGTDYTFTISSLQPEDIATYFCQQGDTRPYTFGGGTKVEIK
In the case of B1, the FACS (MFI) came out at 789 MFI.

B2: h140Hm13/h140Lm16 (antibody, V domains shown)
VH: EVQLVQSGAEVKKPGASVKVSCKASGYKFTNYVMSWVRQAPGQRLEWMGYINPYNDAIKYNEKFTGRVTITRDTSASTAYMELSSLRSEDTAVYYCAREGDFYANYGRLGFAYWGQGTLVTVSS
VL: DIQMTQSPSSLSASVGDRVTITCRASQDITNYLNWYQQKPGKAPKLLIYYTSRLQSGVPSRFSGSGSGTDYTFTISSLQPEDIATYFCQQGDTSPYTFGGGTKVEIK
In turn, B2 had an FACS (MFI) of 721 MFI.

B3: h140Hm13/h140Lm12 (antibody, V domains shown)
VH: EVQLVQSGAEVKKPGASVKVSCKASGYKFTNYVMSWVRQAPGQRLEWMGYINPYNDAIKYNEKFTGRVTITRDTSASTAYMELSSLRSEDTAVYYCAREGDFYANYGRLGFAYWGQGTLVTVSS
VL: DIQMTQSPSSLSASVGDRVTITCRASQDITNYLNWYQQKPGKAPKLLIYYTSRLQSGVPSRFSGSGSGTDYTFTISSLQPEDIATYFCQQGDTRPYTFGGGTKVEIK
As to B3, the FACS (MFI) worked out at 946 MFI.

B4: h140Hm13/h140Lm17 (antibody, V domains shown)
VH: EVQLVQSGAEVKKPGASVKVSCKASGYKFTNYVMSWVRQAPGQRLEWMGYINPYNDAIKYNEKFTGRVTITRDTSASTAYMELSSLRSEDTAVYYCAREGDFYANYGRLGFAYWGQGTLVTVSS
VL: DIQMTQSPSSLSASVGDRVTITCRASQDITNYLNWYQQKPGKAPKLLIYYTSRLQSGVPSRFSGSGSGTDYTFTISSLQPEDIATYFCQQGDTEPYTFGGGTKVEIK
For B4, the FACS (MFI) was 689 MFI.

B5: h140Hm13/h140Lm14 (antibody, V domains shown)
VH: EVQLVQSGAEVKKPGASVKVSCKASGYKFTNYVMSWVRQAPGQRLEWMGYINPYNDAIKYNEKFTGRVTITRDTSASTAYMELSSLRSEDTAVYYCAREGDFYANYGRLGFAYWGQGTLVTVSS
VL: DIQMTQSPSSLSASVGDRVTITCRASQDITNYLNWYQQKPGKAPKLLIYYTSRLQSGVPSRFSGSGSGTDYTFTISSLQPEDIATYFCQQGDTYPYTFGGGTKVEIK
The molecule B5 yielded an FACS (MFI) of 921 MFI.

B6: h140Hm13/h140Lm13 (antibody, V domains shown)
VH: EVQLVQSGAEVKKPGASVKVSCKASGYKFTNYVMSWVRQAPGQRLEWMGYINPYNDAIKYNEKFTGRVTITRDTSASTAYMELSSLRSEDTAVYYCAREGDFYANYGRLGFAYWGQGTLVTVSS
VL: DIQMTQSPSSLSASVGDRVTITCRASQDITNYLNWYQQKPGKAPKLLIYYTSRLHSGVPSRFSGSGSGTDYTFTISSLQPEDIATYFCQQGDTFPYTFGGGTKVEIK
Turning to B6, the FACS (MFI) turned out to be 1760 MFI.

B7: h140Hm13/h140Lm15 (antibody, V domains shown)
VH: EVQLVQSGAEVKKPGASVKVSCKASGYKFTNYVMSWVRQAPGQRLEWMGYINPYNDAIKYNEKFTGRVTITRDTSASTAYMELSSLRSEDTAVYYCAREGDFYANYGRLGFAYWGQGTLVTVSS
VL: DIQMTQSPSSLSASVGDRVTITCRASQDITNYLNWYQQKPGKAPKLLIYYTSRLQSGVPSRFSGSGSGTDYTFTISSLQPEDIATYFCQQGDTKPYTFGGGTKVEIK
Molecule B7 had an FACS (MFI) of 954 MFI.

B8: h140Hm13/h140Lm18 (antibody, V domains shown)
VH: EVQLVQSGAEVKKPGASVKVSCKASGYKFTNYVMSWVRQAPGQRLEWMGYINPYNDAIKYNEKFTGRVTITRDTSASTAYMELSSLRSEDTAVYYCAREGDFYANYGRLGFAYWGQGTLVTVSS
VL: DIQMTQSPSSLSASVGDRVTITCRASQDITNYLNWYQQKPGKAPKLLIYYTSRLQSGVPSRFSGSGSGTDYTFTISSLQPEDIATYFCQQGDTNPYTFGGGTKVEIK
The molecule B8 showed an FACS (MFI) of 697 MFI.
